The supplement of paper PMC7877785
± gives the uncertainty stated by the source.

Assay: self-splicing fitness, log relative to wild type (ln ratio); higher = more splicing; Tetrahymena group I intron in knt gene, E. coli kanamycin selection, DiMSum; sequences stand for … in CUCUCU…GGAGGGAAAAGUUAUCAGGCAUGCACCUGGUAGCUAGUCUUUAAACCAAUAGAUUGCAUCGGUUUAAAAGGCAAGACCGUCAAAUUGCGGGAAAGGGGUCAACAGCCGUUCAGUACCAAGUCUCAGGGGAAACUUUGAGAUGGCCUUGCAAAGGGUAUGGUAAUAAGCUGACGGACAUGGUCCUAACCACGCAGCCAAGUCCUAAGUCAACAGAUCUUCUGUUGAUAUGGAUGCAGUUCACAGACUAAAUGUCGGUCGGGGAAGAUGUAUUCUUCUCAUAAGAUAUAGUCGGACCUCUCCUUAAUGGGAGCUAGCGGAUGAAGUGAUGCAACACUGGAGCCGCUGGGAACUAAUUUGUAUGCGAAAGUAUAUUGAUUAGUUUUGGAGUACUCGUGGUCG
How it was run: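 Fitness was computed with DiMSum as the error-weighted combination of replicate fold changes, kanamycin versus none, each normalised to wild type. The library randomised all eight intron nucleotides of the P1ex region, with the intron placed in the knt kanamycin-resistance gene on pET-22b(+) in E. coli BL21(DE3). Six replicate transformations were grown overnight at 37°C or 30°C on LB agar with or without 25 μg/mL kanamycin, plus 100 μg/mL carbenicillin, 50 μM IPTG and 0.2% rhamnose. Pooled colonies were amplicon-sequenced on an Illumina HiSeq 2500.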

Row | Sequence | self-splicing fitness (ln) (30 °C) | self-splicing fitness (ln) (37 °C)
1 | CUCUAGCAAUAUUACGCGUC | -3.9 ± 0.47 | -2.85 ± 0.24
2 | CUCUAGCAAUAUUACGCUAC | -3.65 ± 0.47 | -1.14 ± 0.37
3 | CUCUAGCAAUAUUACGCUGU | -3.07 ± 0.31 | -3.24 ± 0.29
4 | CUCUAGCAAUAUUACGGAAU | -3.43 ± 0.26 | -3.25 ± 0.3
5 | CUCUAGCAAUAUUACGGGUG | -1.57 ± 0.092 | -0.947 ± 0.1
6 | CUCUAGCAAUAUUACGGGUU | -4.28 ± 0.32 | -3.31 ± 0.24
7 | CUCUAGCAAUAUUACGGUCC | -2.84 ± 0.33 | -2.53 ± 0.36
8 | CUCUAGCAAUAUUACGGUCG | -1.51 ± 0.14 | -0.933 ± 0.14
9 | CUCUAGCAAUAUUACGGUGC | -2.62 ± 0.21 | –
10 | CUCUAGCAAUAUUACGUCCA | – | -2.12 ± 0.4
11 | CUCUAGCAAUAUUACGUGGA | -3.43 ± 0.25 | -2.17 ± 0.19
12 | CUCUAGCAAUAUUACGUGUC | -3.45 ± 0.21 | -3.91 ± 0.31
13 | CUCUAGCAAUAUUACGUUAA | -2.75 ± 0.27 | –
14 | CUCUAGCAAUAUUACGUUUA | -3.48 ± 0.25 | -3.07 ± 0.29
15 | CUGAAGCAAUAUUACGAACA | -2.82 ± 0.41 | -2.11 ± 0.23
16 | CUGAAGCAAUAUUACGAGAC | -0.346 ± 0.11 | 0.35 ± 0.15
17 | CUGAAGCAAUAUUACGAGCC | -3.13 ± 0.31 | –
18 | CUGAAGCAAUAUUACGAGUU | -4 ± 0.23 | -3.47 ± 0.19
19 | CUGAAGCAAUAUUACGAUAG | -0.213 ± 0.082 | 0.563 ± 0.11
20 | CUGAAGCAAUAUUACGCACG | -0.222 ± 0.072 | -1.34 ± 0.08
21 | CUGAAGCAAUAUUACGCCAU | -3.41 ± 0.31 | -2.52 ± 0.36
22 | CUGAAGCAAUAUUACGCCUC | -3.61 ± 0.44 | –
23 | CUGAAGCAAUAUUACGCGCA | -3.11 ± 0.23 | -2.19 ± 0.36
24 | CUGAAGCAAUAUUACGCGGG | -1.65 ± 0.17 | -1.83 ± 0.19
25 | CUGAAGCAAUAUUACGCUGU | -3.65 ± 0.2 | -2.75 ± 0.24

Row | Sequence | self-splicing fitness (ln) (30 °C) | self-splicing fitness (ln) (37 °C)
26 | CUGAAGCAAUAUUACGGAAA | -3.46 ± 0.26 | -1.43 ± 0.31
27 | CUGAAGCAAUAUUACGGAGA | -3.62 ± 0.38 | -1.97 ± 0.32
28 | CUGAAGCAAUAUUACGGCAU | -2.91 ± 0.12 | -3.52 ± 0.31
29 | CUGAAGCAAUAUUACGGCCA | -2.42 ± 0.17 | -2.69 ± 0.34
30 | CUGAAGCAAUAUUACGGUAA | -3.7 ± 0.24 | -1.27 ± 0.24
31 | CUGAAGCAAUAUUACGGUGA | -4.38 ± 0.31 | -2.6 ± 0.21
32 | CUGAAGCAAUAUUACGUCAA | -1.2 ± 0.065 | -0.435 ± 0.084
33 | CUGAAGCAAUAUUACGUUAC | -3.27 ± 0.35 | -2.39 ± 0.44
34 | CUGAAGCAAUAUUACGUUGA | -4.04 ± 0.18 | -2.66 ± 0.21
35 | CUGCAGCAAUAUUACGAAAU | -3.51 ± 0.37 | -1.62 ± 0.18
36 | CUGCAGCAAUAUUACGACAA | – | -0.88 ± 0.19
37 | CUGCAGCAAUAUUACGAGGA | -3.68 ± 0.22 | -2.39 ± 0.18
38 | CUGCAGCAAUAUUACGAGGC | -2.65 ± 0.17 | -1.97 ± 0.22
39 | CUGCAGCAAUAUUACGAUCG | -0.0275 ± 0.073 | 0.558 ± 0.1
40 | CUGCAGCAAUAUUACGAUUA | -3.35 ± 0.28 | -2.32 ± 0.16
41 | CUGCAGCAAUAUUACGCACU | -3.45 ± 0.2 | -0.783 ± 0.17
42 | CUGCAGCAAUAUUACGCAGG | -2.91 ± 0.17 | -2.15 ± 0.16
43 | CUGCAGCAAUAUUACGCUGU | -1.87 ± 0.12 | -2.8 ± 0.3
44 | CUGCAGCAAUAUUACGGCUG | -3.32 ± 0.3 | -1.52 ± 0.26
45 | CUGCAGCAAUAUUACGGGAA | -4.02 ± 0.29 | -2.53 ± 0.17
46 | CUGCAGCAAUAUUACGUACG | -0.548 ± 0.082 | 0.0422 ± 0.11
47 | CUGCAGCAAUAUUACGUAGA | -3.08 ± 0.15 | -3.35 ± 0.3
48 | CUGCAGCAAUAUUACGUAUA | -2.64 ± 0.17 | -2.16 ± 0.18
49 | CUGCAGCAAUAUUACGUUCA | -3.81 ± 0.2 | -1.97 ± 0.15
